B1: DNA01 (dsDNA)
DNA 1: GGGTAGCATATGCTACCC
DNA 2: GGGTAGCATATGCTACCC
B2: DNA02 (dsDNA)
DNA 1: GGGTAACCACTGTTACCC
DNA 2: GGGTAACAGTGGTTACCC

Target: EBNA1 DBD (Epstein-Barr virus (strain B95.8), UniProt P03211 461-607)
Assay: fluorescence polarization; EC50; 1 mM MgCl2; FP: 200 mM NaCl, 20 mM Tris-HCl pH 7.5, 1 mM MgCl2, 0.01% CHAPS; 20 nM FAM probe stock mixed 1:1 with 0.31-20 µM protein, 20 min; temperature not stated
Settings: protein: recombinant, tags: N-terminal 6xHis-SUMO, removed by ULP1, chain copies: 2, label: 5'-FAM, called 18-bp

Chain of EBNA1 DBD (P03211 461-607): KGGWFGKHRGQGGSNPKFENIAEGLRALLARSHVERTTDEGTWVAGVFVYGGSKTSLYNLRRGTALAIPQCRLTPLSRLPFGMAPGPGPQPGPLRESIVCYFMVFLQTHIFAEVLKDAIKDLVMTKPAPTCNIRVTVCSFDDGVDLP

Binder | apparent K (half saturation) (blunt, one self-complementary strand printed, 2 copies) | apparent K (half saturation) (only the FAM strand is printed, complement implied)
B1 | 2130 nM | 
B2 |  | 1540 nM

From publication PMC11467371, “Structure‐based design of antibodies targeting the EBNA1 DNA‐binding domain to block Epstein–Barr virus latent infection and tumor growth”
